Measured values published in paper PMC3472031.
“And” between values parts separate entries of the source, which are not always exact repeats. Identical values can stand only once.

Tests used:
[1] = target: EspFU R475 R475 (fifth 47-residue repeat) (Escherichia coli O157:H7), P0DJ88; experiment: ITC
[2] = target: EspFU R2 20-residue peptide from second repeat (Escherichia coli O157:H7), P0DJ88; experiment: ITC

Row | Binder | Kd [1] | Kd [2] [nM]
1 | N-WASP GBD GBD, O00401 (protein) KRLTKADIGTPSNFQHIGHVGWDPNTGFDLNNLDPELKNLFDMCGISEAQLKDRETSKVIYDFIEKTGGVEAVKNELRR | 40 nM and 70 nM | 
2 | IRTKS SH3 SH3, Q9UHR4 (protein) LNMMKKQKVKTIFPHTAGSNKTLLSFAQGDVITLLIPEEKDGWLYGEHDVSKARGWFPSSYTKLLEENET |  | 1100
